The record followed here is publication PMC3540129.

Experiment [1] concerns the target Kv7.4 (KCNQ4) B segment (Q4B, residues 522-557), tag removed (human) (UniProt P56696). Briefly: SEC-MALS. In general terms: Size exclusion chromatography separates by hydrodynamic size, large species first.
The target of experiment [2] is Kv7.5 (KCNQ5) B-D construct (Q5BD), tag removed (human) (UniProt Q9NR82). Briefly: SEC.

Sequence of UniProt P56696 (P56696 522-557): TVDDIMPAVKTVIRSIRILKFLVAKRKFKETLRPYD

For “Calmodulin (CaM), full-length native (from UniProt P0DP23 1-149) (natural protein)”, the stoichiometry N – broadly, the number of molecules, sites or subunits per partner or assembly – in experiment [1] was determined as 1. In turn, “Kv7.5 (KCNQ5) B-D construct (Q5BD), tag removed (from UniProt Q9NR82 1-932) (domain or fragment)” returned a stoichiometry N in experiment [2] of 4.
